Among the data in PMC10764278 are percent of tau pelletable values, retold here.

This assay has as its target recombinant human tau(297–391) (human) (UniProt P10636). Put plainly: co-sedimentation; pelletable tau: whole assembly reaction centrifuged at 400,000g, 20 °C, 15 min, pellet and supernatant quantified by SDS-PAGE; 720 min (Fig. 2b, PHF reaction).

For “recombinant human tau(297–391) (from UniProt P10636-8 297-391) (domain or fragment)”, the percent of tau pelletable was 80 to 90%.
